# ± gives the uncertainty stated by the source.
# B1: Ankyrin-1, residues 1405 to 1484; numbered along this chain, P16157 (parent)
# chain: MKMAVISEHLGLSWAELARELQFSVEDINRIRVENPNSLLEQSVALLNLWVIREGQNANMENLYTALQSIDRGEIVNMLE
# Variants of: B1
# Assay: abundance fitness (aPCA) (normalised: wild type 0, dead -1); higher = more abundant; growth selection in yeast, the domain comes from the species named
# Details: Homo sapiens
row,Variant,abundance fitness
1,MKMAVISEHLGLSWEELARELQFSVEDINRIRVENPNSLLEQSVALLNLWVIREGQNANMENLYTALQSIDRGEIVNMLE,0.04 ± 0.076
2,MKMAVISEHLGLSWAELARELQFSVEDINRIRVENPNSLLEQSVALLNLWVIREGQNANMENLGTALQSIDRGEIVNMLE,-0.274 ± 0.056
3,MKMAVISEHLGLSWAELARELQFSVEDINRIRVENPNSLLEQSVALLNLWVIREGQNANMENLDTALQSIDRGEIVNMLE,-0.797 ± 0.44
4,MKMAVISEHLGLSWAELARELQFSVEDINRIRVENPNSLLEQSVALLNLWVIREGQNANMENLVTALQSIDRGEIVNMLE,-0.225 ± 0.061
5,MKMAVISEHLGLSWAELAQELQFSVEDINRIRVENPNSLLEQSVALLNLWVIREGQNANMENLYTALQSIDRGEIVNMLE,-0.052 ± 0.12
6,MKMAVISEHLGLSWAELARELLFSVEDINRIRVENPNSLLEQSVALLNLWVIREGQNANMENLYTALQSIDRGEIVNMLE,-0.126 ± 0.052
7,MKMAVISEHLGLSWAELVRELQFSVEDINRIRVENPNSLLEQSVALLNLWVIREGQNANMENLYTALQSIDRGEIVNMLE,-1.07 ± 0.15
8,MKMAVISEHLGLSWAELARELQFSVEDINRIRVENPFSLLEQSVALLNLWVIREGQNANMENLYTALQSIDRGEIVNMLE,-0.152 ± 0.23
9,MKMAVISEHLGLSWAELARELQFSVEDINRIRVENPNSLLEQSVALLNLWLIREGQNANMENLYTALQSIDRGEIVNMLE,0.053 ± 0.077
10,MKMAVISEHLGLSWAELARELQFSVEDINRIRVENPNSLLEQSVALLNLWQIREGQNANMENLYTALQSIDRGEIVNMLE,0.176 ± 0.074
11,MKMAVISEHLGLSWAELARELQFSVEDINRIRVENPNSLLEQSVALLNLWVIREGQNANMEVLYTALQSIDRGEIVNMLE,0.071 ± 0.065
12,MKMAVISEHLGLSWAELARELQFSVEDINRIRVENPNSLLEQSVALLNLWVIREGQNANMENLYTELQSIDRGEIVNMLE,-0.85 ± 0.17
13,MKMAVISEHLGLSWAELARELQFSVEDINRIRVENPNSLLEQSVALLNLWVIREGQNANMENLYTKLQSIDRGEIVNMLE,-0.263 ± 0.12
14,MKMAVISEHLGLSWAELARELQFSVEDINRIREENPNSLLEQSVALLNLWVIREGQNANMENLYTALQSIDRGEIVNMLE,-0.014 ± 0.068
15,MKMAVISEHLGLSWAELARELQFSVLDINRIRVENPNSLLEQSVALLNLWVIREGQNANMENLYTALQSIDRGEIVNMLE,-0.153 ± 0.053
16,MKMAVISEHLGLSWAELARELQFSVFDINRIRVENPNSLLEQSVALLNLWVIREGQNANMENLYTALQSIDRGEIVNMLE,-0.369 ± 0.14
17,MKMAVISEHLGLSMAELARELQFSVEDINRIRVENPNSLLEQSVALLNLWVIREGQNANMENLYTALQSIDRGEIVNMLE,-0.454 ± 0.13
18,MKMAVISEHLALSWAELARELQFSVEDINRIRVENPNSLLEQSVALLNLWVIREGQNANMENLYTALQSIDRGEIVNMLE,-0.47 ± 0.079

row,Variant,abundance fitness
1,MKMAVISEHLGLSWAELARELQFMVEDINRIRVENPNSLLEQSVALLNLWVIREGQNANMENLYTALQSIDRGEIVNMLE,-0.487 ± 0.12
2,MKMAVISEHLGLSWAELARELQFRVEDINRIRVENPNSLLEQSVALLNLWVIREGQNANMENLYTALQSIDRGEIVNMLE,-0.25 ± 0.051
3,MKMAVISEHLGLSWAELARELQFSVEDINRIRVENPNSLLEQSVALLNLWVIRESQNANMENLYTALQSIDRGEIVNMLE,-0.277 ± 0.12
4,MKMAVISEHLGLSWAELARELQFSVEDINRIRVENPNSLLEQSVALLNLWVIRETQNANMENLYTALQSIDRGEIVNMLE,-0.133 ± 0.15
5,MKMAVISEHLGLSWAELARELQFSVEDINRIRVENPNSLLEQSVCLLNLWVIREGQNANMENLYTALQSIDRGEIVNMLE,-0.259 ± 0.034
6,MKMAVISEHLGLSWAELARELQFSVEDINRIRVENPNSLLEQSVILLNLWVIREGQNANMENLYTALQSIDRGEIVNMLE,-0.45 ± 0.14
7,MKMAVISEHLGLSWAELARELQFSVEDINRIRVENPNSLLEQSVMLLNLWVIREGQNANMENLYTALQSIDRGEIVNMLE,-0.173 ± 0.12
8,MKMAVISEHLGLSWAELARELQFSVEDINRIRVENPNSLLEQSVALLNLWVIRRGQNANMENLYTALQSIDRGEIVNMLE,-0.456 ± 0.065
9,MKMAVISEHLGLSWAELARELQFSVEDINRIRVENPNSLLEQSVALLNLRVIREGQNANMENLYTALQSIDRGEIVNMLE,-0.863 ± 0.12
10,MKMAVISEHLGLSWAELARELQFSVEDINRIRVENPNSLLEQSVALLNLCVIREGQNANMENLYTALQSIDRGEIVNMLE,-0.71 ± 0.36
11,MKMAVISEHLGLSWAELARELQFSVEDINRIRVENPNSLLEQSVALLSLWVIREGQNANMENLYTALQSIDRGEIVNMLE,-0.277 ± 0.07
12,MKMAVISEHLGLSWAELARELQFSVEDINRIRVENPNSLLMQSVALLNLWVIREGQNANMENLYTALQSIDRGEIVNMLE,-0.275 ± 0.12
13,MKMAVISEHLGLLWAELARELQFSVEDINRIRVENPNSLLEQSVALLNLWVIREGQNANMENLYTALQSIDRGEIVNMLE,-0.417 ± 0.12
14,MKMAVISEHLGLFWAELARELQFSVEDINRIRVENPNSLLEQSVALLNLWVIREGQNANMENLYTALQSIDRGEIVNMLE,-0.333 ± 0.14
15,MKMAVISEHLGLSWAELARELQFSVEDINRIRVEFPNSLLEQSVALLNLWVIREGQNANMENLYTALQSIDRGEIVNMLE,-0.219 ± 0.2
16,MKMAVISEHLGLSWAELARELQFSVEDINRIRVEVPNSLLEQSVALLNLWVIREGQNANMENLYTALQSIDRGEIVNMLE,-0.171 ± 0.12
17,MKMAVISEHLGLSWAELARVLQFSVEDINRIRVENPNSLLEQSVALLNLWVIREGQNANMENLYTALQSIDRGEIVNMLE,-0.175 ± 0.062

# From the Human Domainome abundance scans (Beltran et al. 2025)
